# Measurements: article PMC7586219
# What was measured:
# [1] = biological target: Orbicella faveolata caspase-3b (Orbicella faveolata); experiment: SEC; Superdex75 Increase 10/300GL; protein 1-5 mg/ml, 200 ul loaded; 30 mM potassium phosphate, pH 7.5, 1 mM DTT; column calibrated with the LMW calibration kit; protomer to dimer
# [2] = biological target: Porites astreoides caspase-3 (Porites astreoides); experiment: as above
Substance,stoichiometry N [1],stoichiometry N [2]
Orbicella faveolata caspase-3b (enzyme),2,–
Porites astreoides caspase-3 (enzyme),–,2
